Values joined by “and” are separate entries in the source; they are usually repeats but may differ in a detail not shown here. Equal entries are not always repeated.
Molecular target: T1, G-CSF receptor on the surface of murine myeloid leukemia cell line G-NFS-60 (murine (cell line G-NFS-60)) (UniProt P40223)
T1 sequence (looked up): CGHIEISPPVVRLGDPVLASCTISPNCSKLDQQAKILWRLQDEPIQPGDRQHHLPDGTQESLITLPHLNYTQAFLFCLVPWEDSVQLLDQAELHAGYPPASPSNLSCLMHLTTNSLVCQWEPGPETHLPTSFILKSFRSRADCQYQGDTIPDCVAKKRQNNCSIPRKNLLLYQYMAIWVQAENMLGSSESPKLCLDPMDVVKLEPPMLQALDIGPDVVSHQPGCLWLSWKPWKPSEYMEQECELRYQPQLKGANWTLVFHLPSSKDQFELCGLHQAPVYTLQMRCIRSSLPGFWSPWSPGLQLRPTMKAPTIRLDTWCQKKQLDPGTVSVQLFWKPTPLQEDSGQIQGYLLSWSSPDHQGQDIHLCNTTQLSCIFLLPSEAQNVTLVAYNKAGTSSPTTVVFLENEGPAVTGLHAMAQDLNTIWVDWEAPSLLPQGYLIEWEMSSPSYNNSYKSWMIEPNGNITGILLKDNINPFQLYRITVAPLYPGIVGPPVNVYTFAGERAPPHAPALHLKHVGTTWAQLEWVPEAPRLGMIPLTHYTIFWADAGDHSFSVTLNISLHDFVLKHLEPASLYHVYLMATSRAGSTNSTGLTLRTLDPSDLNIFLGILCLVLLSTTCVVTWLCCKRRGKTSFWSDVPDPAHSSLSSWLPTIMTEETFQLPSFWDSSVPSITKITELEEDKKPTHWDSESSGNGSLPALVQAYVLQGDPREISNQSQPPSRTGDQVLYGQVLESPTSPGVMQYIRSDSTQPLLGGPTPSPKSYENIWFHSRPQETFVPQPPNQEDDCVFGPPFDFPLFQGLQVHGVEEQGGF
Assay: cell-based or functional assay

Biologic activity (proliferation of G-NFS-60 cells, MTS dye): 1e+08 IU/mg and 6e+07 IU/ml
Substance: Monomer G-CSF (from UniProt P09919 31-204) (ligand)

— US20140193357A1
